Target: T1, CD3 antigen of the T-cell receptor-CD3 complex on human T cells (human, UniProt P07766 23-207)
T1 construct: whole, on cells; also called OKT3 antigen
Assay: antigen binding assay on CD3 positive cells, COS cell supernatant (cell line not restated)
Description: The procedure was as follows:
HUT 78 cells (human T cell line, CD3 positive) were maintained in culture. Monolayers of HUT 78 cells were prepared onto 96 well ELISA plates using poly-L-lysine and glutaraldehyde. Samples were added to the monolayers for 1 hour at room temperature. The plates were washed gently using PBS. F(ab')_2 goat anti-human IgG Fc (HRPO conjugated) or F(ab')_2 goat anti-mouse IgG Fc (HRPO conjugated) was added as appropriate for humanised or mouse samples. Substrate was added to reveal the reaction. The negative control for the cell-based assay was chimer B72.3. […] Binding was measured by the following procedure: HPB-ALL cells were harvested from tissue culture. Cells were incubated at 4° C. for 1 hour with various dilutions of test antibody, positive control antibody, or negative control antibody. The cells were washed once and incubated at 4° C. for 1 hour with an FITC-labelled goat anti-human IgG (Fc– specific, mouse absorbed). The cells were washed twice and analysed by cytofluorography. […] Cells incubated with mock-transfected COS cell supernatant, followed by the FITC-labelled goat anti-human IgG, provided the negative control. […] The samples were incubated for 1 hour at 4° C., washed twice and analysed by cytofluorography.

B1: fully CDR-grafted antibody kgL221A with gH341 (kgL221A/kgH341) (antibody, V domains shown)
VH: QVQLVESGGGVVQPGRSLRLSCSSSGYTFTRYTMHWVRQAPGKGLEWVAYINPSRGYTNYNQKFKDRFTISRDNSKNTLFLQMDSLRPEDTGVYFCARYYDDHYCLDYWGQGTTLTVSS
VL: QIVMTQSPSSLSASVGDRVTITCSASSSVSYMNWYQQTPGKAPKRWIYDTSKLASGVPSRFSGSGSGTDYTFTISSLQPEDIATYYCQQWSSNPFTFGQGTKLQIT
notes: Expression was very low; also called kgH221A/gH341; kgH221A/kgH341
B1: no binding.

— US6750325 (CELLTECH R AND D, dated 2004)
